B1: TPR t1 (parent)
chain: GACCAAUCUGCCCUCAGAGCUCGAGAACAUCUUCGGAUGCAGAGGAGGCAGGCUUCGGUGGCGCGAUAGCGCCAACGUCCUCAACCUCCAAUGCAUCCCACCACAUGAUGAUGCCUGAAGAGCCUUGGUUUUUUG

This data set covers variants of B1. Description: polymerase ribozyme fitness, log enrichment relative to wild type (log ratio); higher = more active; in vitro selection for triplet polymerase activity. Summed up:
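To select mutant libraries of each subunit of a heterodimeric triplet polymerase ribozyme, built by PCR and transcribed, each was annealed with a biotinylated primer, partner subunit and triplets, then incubated frozen at −7 °C. Extended constructs were gel-excised, captured on streptavidin beads and amplified by RT-PCR, in one round carried out in triplicate. Illumina sequencing of input and output libraries kept genotypes with ≥10 input reads and ≥1 read per output. Fitness is the base-2 logarithm of genotype enrichment relative to wild-type enrichment, from inverse-variance-weighted replicate averages.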
Turning to C56U U87A, the “polymerase ribozyme fitness (log ratio)” value is -0.176. In the case of G58U A68G, the “polymerase ribozyme fitness (log ratio)” value is -3.5.

Consider C56G C73A G93C, for which the “polymerase ribozyme fitness (log ratio)” value was -4.53. The same measure for C56U G127A: -1.2; for C56U G127C: -1.62. The result for G57C A100U U112C U125C reads 0.722; that for G57U A84C C101G G122A, -3.55; that for G60A C98A, -4.29.

As for G60A C98G, the “polymerase ribozyme fitness (log ratio)” value was -7.02. In the case of C56G G127U, the “polymerase ribozyme fitness (log ratio)” value was -1.1. As to G58C C76G G77U, the “polymerase ribozyme fitness (log ratio)” value was -0.291.

In the case of G60A G77A C82G, the “polymerase ribozyme fitness (log ratio)” value was -0.994. Regarding U59A G77A, the “polymerase ribozyme fitness (log ratio)” value was -0.182. Consider C56G U112C, for which the “polymerase ribozyme fitness (log ratio)” value came out at 1.26. In the case of C56G A74U U81A U87A, the “polymerase ribozyme fitness (log ratio)” value was -4.29.

Take G58C C62A C114A G127A U130G: the “polymerase ribozyme fitness (log ratio)” value was -6.59.

Turning to C56U C73A, the “polymerase ribozyme fitness (log ratio)” value was -0.837. The result for G60A A90U reads -1.06; that for U59C A83C C101G C115U U116A, -5.84; that for C56U U59G C114G, -1.96.

For G57A A66C, the “polymerase ribozyme fitness (log ratio)” value is -2.98. Turning to G57C G120U C124U, the “polymerase ribozyme fitness (log ratio)” value came to 0.197. The same measure for G57U U87G G113A C123U: -1.98; for G58C C98G G120C C123U: -6.14.

On to U59C A111U A118U, for which the “polymerase ribozyme fitness (log ratio)” value was -4.73. As for G57U C89A, the “polymerase ribozyme fitness (log ratio)” value is -1.5. The result for G57A G63U G122A reads -2.81; that for G60A G120U, 0.305. The same measure for C56G G61C: -5.99. The same measure for G57A C72U: -1.29. For C56A G122A, the “polymerase ribozyme fitness (log ratio)” value was -0.936.

With G57A C64U U78C U87C C104U G113A, the “polymerase ribozyme fitness (log ratio)” value was -1.61. In the case of U59C C89A A95C G113C, the “polymerase ribozyme fitness (log ratio)” value is -4.48. The same measure for C56G U96A C123G U130C: 0.506; for C56U U81G C82A: -1.57; for G58U G61A U131G: -0.481. Consider G57A C72A C85U C99G U106G, for which the “polymerase ribozyme fitness (log ratio)” value is -7.04. The same measure for U59A A83G: -0.546; for G57U U59A C124A: 1.82; for G57C G110A: -1.6. The same measure for G60A U78C: -0.393; for C56U U96C: 0.246; for G58A U81A: -0.982.

As to G60A C73A, the “polymerase ribozyme fitness (log ratio)” value was -0.416. The same measure for C56U U78G U106G G110A U129A U131C: -4.97. C56U C124A: the “polymerase ribozyme fitness (log ratio)” value came out at 1.7. The same measure for G60A C94A: -2.04; for U59C G113U: -3.62; for U59C G113A: -1.03.

Turning to G60A G69A U87A, the “polymerase ribozyme fitness (log ratio)” value is -3.78.

Turning to C56G G69U C124U, the “polymerase ribozyme fitness (log ratio)” value stood at 0.715. The same measure for C56U C97U: -0.00643; for U59A C124U: 1.47. For the variant G58U C62A U92A, the “polymerase ribozyme fitness (log ratio)” value was -5.81. The same measure for U59A G117U: -2.68; for C56U G61U U112C A118C: -4.53. The result for U59C A83U reads -0.619. The same measure for G58A G122A: -0.321; for G60A G61U U96G: -2.55; for U59C C70U C85A: -2.04. With C56U U129C, the “polymerase ribozyme fitness (log ratio)” value was -0.507. Consider G58A G63A C98U U112A, for which the “polymerase ribozyme fitness (log ratio)” value was -4.56. The same measure for C56G U116C U130G: -0.701.

In the case of C56G G93U, the “polymerase ribozyme fitness (log ratio)” value is -2.19.

G58U G60C C88U A95U: the “polymerase ribozyme fitness (log ratio)” value was -2.05. The result for C56U A91U reads -1.19; that for G60A C114A A121G, -0.404; that for U59C G120A, 0.486. Regarding U59A C64U C82G, the “polymerase ribozyme fitness (log ratio)” value was -0.95. For G60A G61A C88A G120C A121U, the “polymerase ribozyme fitness (log ratio)” value is -2.51.

With G60A U78C C97G, the “polymerase ribozyme fitness (log ratio)” value was -4.55. As for G60A C85U U106G, the “polymerase ribozyme fitness (log ratio)” value is -3.68. The same measure for U59C U130C: -0.123. Take G57U G135U: the “polymerase ribozyme fitness (log ratio)” value is -0.352. The result for G57U A119U G120U reads -0.267; that for U59C U87A U112C, 0.815. The same measure for C56G G77C: -0.126; for C56G G77A: -0.468; for G58C U106A: 0.185. The result for G58U G60U C80U U87A C89U reads -3.57; that for C56G G63U, -4.87. With G60A U78G A84U G93A C102A, the “polymerase ribozyme fitness (log ratio)” value is -4.94. The same measure for C56U G69U C79A C101U: -3.71. Regarding G57C C114G U131C, the “polymerase ribozyme fitness (log ratio)” value is -2.69.

These data come from the RNAGym collection of RNA variant scans (doi:10.1073/pnas.2313332121).
